Laboratory results from patent US20240182536A1 (MURAL ONCOLOGY, published 2024).
Like-named read-outs stand apart in the source and are kept apart here.

Columns and labels:
[1] = target: T1, human IL-18 binding protein (IL-18BP) (human, UniProt O95998 31-194); experiment: cell-based or functional assay
T1 sequence (looked up): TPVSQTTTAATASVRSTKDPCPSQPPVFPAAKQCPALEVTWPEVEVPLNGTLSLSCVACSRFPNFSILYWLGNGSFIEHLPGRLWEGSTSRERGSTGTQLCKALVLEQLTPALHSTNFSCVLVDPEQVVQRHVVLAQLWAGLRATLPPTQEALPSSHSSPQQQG

[2] = target: T2, IL-18 receptors on HEK-Blue IL-18 reporter cells (InvivoGen) (UniProt Q13478 19-541; O95256 20-599); experiment: cell-based or functional assay
T2 sequence (looked up) 1: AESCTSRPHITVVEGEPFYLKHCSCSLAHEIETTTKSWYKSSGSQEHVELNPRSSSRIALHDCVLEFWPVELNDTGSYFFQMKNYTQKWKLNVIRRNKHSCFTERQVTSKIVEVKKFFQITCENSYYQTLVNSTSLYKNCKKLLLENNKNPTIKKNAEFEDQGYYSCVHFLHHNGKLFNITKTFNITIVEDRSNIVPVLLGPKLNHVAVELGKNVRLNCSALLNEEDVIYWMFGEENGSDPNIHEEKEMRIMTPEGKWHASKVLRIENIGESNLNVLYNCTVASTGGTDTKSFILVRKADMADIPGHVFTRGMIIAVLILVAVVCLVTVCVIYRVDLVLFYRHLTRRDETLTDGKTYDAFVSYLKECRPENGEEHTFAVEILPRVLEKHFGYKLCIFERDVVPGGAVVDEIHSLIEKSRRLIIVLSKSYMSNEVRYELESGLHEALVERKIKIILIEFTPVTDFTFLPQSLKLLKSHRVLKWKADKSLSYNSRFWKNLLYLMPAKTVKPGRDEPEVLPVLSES
T2 sequence (looked up) 2: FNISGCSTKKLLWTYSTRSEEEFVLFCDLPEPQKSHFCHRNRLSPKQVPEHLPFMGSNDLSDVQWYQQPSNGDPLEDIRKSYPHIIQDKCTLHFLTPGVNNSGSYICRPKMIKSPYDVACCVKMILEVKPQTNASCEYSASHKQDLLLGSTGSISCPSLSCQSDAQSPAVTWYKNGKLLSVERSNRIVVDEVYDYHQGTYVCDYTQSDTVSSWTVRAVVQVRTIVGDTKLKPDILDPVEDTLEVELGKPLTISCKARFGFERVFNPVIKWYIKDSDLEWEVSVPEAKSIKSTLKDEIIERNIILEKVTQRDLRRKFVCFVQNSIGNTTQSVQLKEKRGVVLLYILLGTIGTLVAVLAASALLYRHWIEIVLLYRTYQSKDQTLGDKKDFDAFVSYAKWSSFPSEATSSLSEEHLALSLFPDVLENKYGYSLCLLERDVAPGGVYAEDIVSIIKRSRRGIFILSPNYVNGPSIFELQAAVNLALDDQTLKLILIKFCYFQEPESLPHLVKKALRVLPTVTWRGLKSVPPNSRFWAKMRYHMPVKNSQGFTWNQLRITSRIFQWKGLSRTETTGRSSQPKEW

[3] = target: T1, human IL-18 binding protein (IL-18BP); experiment: Octet BLI
Method: (§1) Octet 96red instrument was used to determine affinities of IL18 proteins to BP or receptors. 5-10 ug/ml analyte proteins were used for loading on Sartorius tips (AHC or SA). […] 120-180 s loading, 200 s association and 800 s dissociation were used for kinetics. 3-7 data points were used to calculate affinities.

[4] = target: T3, human IL-18 receptor alpha (IL-18Rα) (human, UniProt Q13478 19-329, limits assumed); experiment: Octet BLI
T3 construct: also called hu IL-18Ra; IL-18R alpha
T3 sequence (looked up): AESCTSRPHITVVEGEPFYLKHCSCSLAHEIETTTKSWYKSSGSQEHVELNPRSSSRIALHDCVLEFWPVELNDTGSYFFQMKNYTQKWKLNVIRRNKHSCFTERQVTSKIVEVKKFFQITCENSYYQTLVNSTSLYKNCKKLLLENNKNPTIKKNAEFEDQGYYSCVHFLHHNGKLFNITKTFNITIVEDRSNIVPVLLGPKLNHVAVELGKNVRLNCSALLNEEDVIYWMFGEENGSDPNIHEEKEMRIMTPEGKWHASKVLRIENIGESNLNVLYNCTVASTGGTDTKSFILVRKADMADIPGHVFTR
Method: as §1

[5] = target: T4, human IL-18R alpha/beta pair (IL-18Rab) (human, UniProt Q13478 19-329; O95256 20-356); experiment: Octet BLI
T4 construct: also called hu IL-18Rab
T4 sequence (looked up) 1: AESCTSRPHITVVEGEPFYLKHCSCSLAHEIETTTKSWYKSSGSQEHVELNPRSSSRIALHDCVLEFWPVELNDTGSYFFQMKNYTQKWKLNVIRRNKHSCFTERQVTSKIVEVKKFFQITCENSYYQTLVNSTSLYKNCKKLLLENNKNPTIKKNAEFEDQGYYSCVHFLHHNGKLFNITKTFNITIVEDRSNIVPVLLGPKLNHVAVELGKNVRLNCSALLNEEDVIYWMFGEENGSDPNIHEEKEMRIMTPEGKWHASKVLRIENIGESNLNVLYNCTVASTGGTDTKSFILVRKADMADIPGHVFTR
T4 sequence (looked up) 2: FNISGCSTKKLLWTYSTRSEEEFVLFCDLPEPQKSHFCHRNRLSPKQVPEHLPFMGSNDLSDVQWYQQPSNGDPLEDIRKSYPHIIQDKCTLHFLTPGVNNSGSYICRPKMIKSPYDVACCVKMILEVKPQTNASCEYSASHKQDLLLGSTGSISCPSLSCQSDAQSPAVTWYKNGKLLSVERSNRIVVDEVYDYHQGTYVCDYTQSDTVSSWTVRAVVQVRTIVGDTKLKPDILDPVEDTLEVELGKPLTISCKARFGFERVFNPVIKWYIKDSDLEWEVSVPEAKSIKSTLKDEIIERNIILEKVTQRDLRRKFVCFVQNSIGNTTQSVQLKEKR
Method: as §1

[6] = target: T1, human IL-18 binding protein (IL-18BP); experiment: cell-based or functional assay; remark: listed apart in the source
[7] = target: T5, IL-18 receptor (IL-18Rα and IL-18Rβ) (UniProt Q13478 19-541; O95256 20-599, limits assumed); experiment: cell-based or functional assay
T5 sequence (looked up) 1: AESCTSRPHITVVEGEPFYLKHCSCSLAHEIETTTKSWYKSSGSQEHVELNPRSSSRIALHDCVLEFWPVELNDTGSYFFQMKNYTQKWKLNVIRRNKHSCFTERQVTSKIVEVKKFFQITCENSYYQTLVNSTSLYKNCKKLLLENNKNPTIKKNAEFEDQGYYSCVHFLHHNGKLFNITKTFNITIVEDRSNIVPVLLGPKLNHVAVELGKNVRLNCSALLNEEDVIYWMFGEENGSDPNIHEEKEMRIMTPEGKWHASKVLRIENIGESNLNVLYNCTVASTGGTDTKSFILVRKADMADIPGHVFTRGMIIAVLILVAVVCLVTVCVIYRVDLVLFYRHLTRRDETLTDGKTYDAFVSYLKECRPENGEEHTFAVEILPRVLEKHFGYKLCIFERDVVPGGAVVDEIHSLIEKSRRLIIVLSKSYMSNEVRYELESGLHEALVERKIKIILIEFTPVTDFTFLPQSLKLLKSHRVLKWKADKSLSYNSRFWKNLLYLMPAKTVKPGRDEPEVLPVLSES
T5 sequence (looked up) 2: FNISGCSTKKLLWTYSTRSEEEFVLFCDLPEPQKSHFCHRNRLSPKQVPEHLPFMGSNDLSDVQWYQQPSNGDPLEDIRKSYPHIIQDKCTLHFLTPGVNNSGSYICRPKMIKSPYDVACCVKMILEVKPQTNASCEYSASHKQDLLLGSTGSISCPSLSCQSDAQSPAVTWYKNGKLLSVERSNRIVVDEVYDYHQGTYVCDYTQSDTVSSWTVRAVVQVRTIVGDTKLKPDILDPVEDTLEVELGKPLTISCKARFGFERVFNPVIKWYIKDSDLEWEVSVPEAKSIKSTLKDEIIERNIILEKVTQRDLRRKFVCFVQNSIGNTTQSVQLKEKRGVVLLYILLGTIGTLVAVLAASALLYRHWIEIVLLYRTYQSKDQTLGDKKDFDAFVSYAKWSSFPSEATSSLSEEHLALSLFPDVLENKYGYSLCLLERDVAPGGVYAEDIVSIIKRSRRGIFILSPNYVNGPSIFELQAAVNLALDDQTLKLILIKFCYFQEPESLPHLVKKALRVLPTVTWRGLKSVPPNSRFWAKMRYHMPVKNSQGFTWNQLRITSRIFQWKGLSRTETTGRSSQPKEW

[8] = target: T1, human IL-18 binding protein (IL-18BP); experiment: cell-based or functional assay; remark: listed apart in the source
[9] = target: T2, IL-18 receptors on HEK-Blue IL-18 …; experiment: cell-based or functional assay; remark: listed apart in the source
[10] = target: T1, human IL-18 binding protein (IL-18BP); experiment: cell-based or functional assay; remark: listed apart in the source
[11] = target: T2, IL-18 receptors on HEK-Blue IL-18 …; experiment: cell-based or functional assay; remark: listed apart in the source
[12] = target: T1, human IL-18 binding protein (IL-18BP); experiment: Octet BLI; remark: listed apart in the source
[13] = target: T3, human IL-18 receptor alpha (IL-18Rα); experiment: Octet BLI; remark: listed apart in the source
[14] = target: T4, human IL-18R alpha/beta pair (IL-18Rab); experiment: Octet BLI; remark: listed apart in the source
[15] = target: T5, IL-18 receptor (IL-18Rα and IL-18Rβ); experiment: cell-based or functional assay; remark: listed apart in the source
[16] = target: T6, interleukin 18 binding protein (IL-18BP) (UniProt O95998 31-194); experiment: cell-based or functional assay
T6 sequence (looked up): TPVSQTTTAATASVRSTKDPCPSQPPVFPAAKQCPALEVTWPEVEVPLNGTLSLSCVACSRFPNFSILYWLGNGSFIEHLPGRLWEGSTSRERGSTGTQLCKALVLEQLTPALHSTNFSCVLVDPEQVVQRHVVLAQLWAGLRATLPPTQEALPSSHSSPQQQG

[17] = target: T7, WT mouse IL-18 on monoFc scaffold (mouse; human, UniProt P70380 36-192); experiment: Octet BLI, monoFc scaffold
T7 construct: mature
Method: as §1
Several mouse variants were next tested for binding affinity to mouse IL-18R alpha and mouse IL-18BP.

T7 sequence (P70380 other isoform, or with tags, fused parts or gaps): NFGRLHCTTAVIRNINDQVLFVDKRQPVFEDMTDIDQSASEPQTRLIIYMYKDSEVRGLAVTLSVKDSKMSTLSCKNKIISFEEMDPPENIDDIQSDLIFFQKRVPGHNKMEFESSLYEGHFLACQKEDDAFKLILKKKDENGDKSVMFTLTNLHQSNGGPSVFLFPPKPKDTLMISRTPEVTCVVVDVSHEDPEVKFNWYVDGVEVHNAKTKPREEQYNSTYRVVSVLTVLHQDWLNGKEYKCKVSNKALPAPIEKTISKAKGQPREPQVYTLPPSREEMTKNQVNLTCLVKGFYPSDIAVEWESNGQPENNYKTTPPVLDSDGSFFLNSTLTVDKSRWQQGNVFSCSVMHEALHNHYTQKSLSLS

B1: IL-18 variant G3V, M60K (ligand)
chain: YFVKLESKLSVIRNLNDQVLFIDQGNRPLFEDMTDSDMRDNAPRTIFIISMYKDSQPRGKAVTISVKSEKISTLSSENKIISFKEMNPPDNIKDTKSDIIFFQRSVPGHDNKMQFESSSYEGYFLASEKERDLFKLILKKEDELGDRSIMFTVQNED
For B1, the “HEK-Blue Activity Assay Ec50 (pM), +50 nM hu IL-18BP” value [1] was 0.16 pM, the “HEK-Blue Activity Assay Ec50 (pM), -hu IL-18BP” value [2] was 0.12 pM and the Kd [3] was 91 nM. The Kd [4] was 41 nM, the Kd [5] was 0.07 nM and the “EC50 pM, IFN gamma expression in PBMCs, + 300 nM BP” value [6] was 14.4 pM. For the same binder, the “EC50 pM, IFN gamma expression in PBMCs, no BP” value [7] was 14.9 pM, the “Fold Change (BP/NO BP), 50 nM BP” value [8] was 1.25 fold and the “Fold Change (BP/NO BP), 300 nM BP” value [8] was 3.25 fold. For the same binder, the “HEK-Blue EC50 pM, +50 nM BP” value [8] was 0.16 pM, the “HEK-blue EC50 (pM) + 300 nM BP” value [8] was 0.59 pM and the “HEK-Blue EC50 pM, NO BP (50 nM BP run)” value [9] was 0.12 pM. For the same binder, the “HEK-Blue EC50 pM, NO BP (300 nM BP run)” value [9] was 0.18 pM, the “HEK-Blue Activity Assay Ec50 (pM), +300 nM hu IL-18BP” value [10] was 0.59 pM and the “HEK-Blue Activity Assay Ec50 (pM), -hu IL-18BP” value [11] was 0.18 pM. For the same binder, the Kd [12] was 91 nM, the Kd [13] was 41 nM and the Kd [14] was 0.07 nM.

B2: Comparator 1 (ligand)
chain: YFGKLESKLSVIRNLNDQVLFIDQGNRPLFEDMTDSDCRDNAPRTIFIISKYSDSLARGLAVTISVKCEKISTLSCENKIISFKEMNPPDNIKDTKSDIIFFQRDVPGHSRKMQFESSSYEGYFLACEKERDLFKLILKKEDELGDRSIMFTVQNED
For B2, the “EC50 (pM), PBMC IFN gamma assay” value [15] was 4.86 pM and the “EC50 (pM), PBMC IFN gamma assay, + 300 nM BP” value [16] was 8.78 pM.

B3: mouse IL-18 binding protein (other, UniProt Q9Z0M9 29-193, looked up)
chain: TSAPQTTATVLTGSSKDPCSSWSPAVPTKQYPALDVIWPEKEVPLNGTLTLSCTACSRFPYFSILYWLGNGSFIEHLPGRLKEGHTSREHRNTSTWLHRALVLEELSPTLRSTNFSCLFVDPGQVAQYHIILAQLWDGLKTAPSPSQETLSSHSPVSRSAGPGVA
notes: also called Mouse IL18BP; Mouse IL-18BP
With B3 the Kd [17] was 2.24 nM.

B4: mouse IL-18 receptor alpha (receptor, UniProt Q61098 20-326, looked up)
chain: KSCIHRSQIHVVEGEPFYLKPCGISAPVHRNETATMRWFKGSASHEYRELNNRSSPRVTFHDHTLEFWPVEMEDEGTYISQVGNDRRNWTLNVTKRNKHSCFSDKLVTSRDVEVNKSLHITCKNPNYEELIQDTWLYKNCKEISKTPRILKDAEFGDEGYYSCVFSVHHNGTRYNITKTVNITVIEGRSKVTPAILGPKCEKVGVELGKDVELNCSASLNKDDLFYWSIRKEDSSDPNVQEDRKETTTWISEGKLHASKILRFQKITENYLNVLYNCTVANEEAIDTKSFVLVRKEIPDIPGHVFTG
notes: also called Mouse IL18Ra; mouse IL-18R alpha
In the case of B4, the Kd [17] is reported as 13.3 nM.
